Source: PMC6610666 (2019)

Biological target: mouse CBP TAZ1 (residues 340-439) (mouse, UniProt P45481 340-439)
Assay: ITC

mouse CBP TAZ1 (residues 340-439), sequence (P45481 340-439): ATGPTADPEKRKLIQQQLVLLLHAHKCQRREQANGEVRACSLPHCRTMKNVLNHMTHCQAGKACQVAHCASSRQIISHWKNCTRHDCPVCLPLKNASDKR

B1: human E2F4 transactivation domain (residues 390-407) (domain or fragment)
chain: HDYIYNLDESEGVCDLFD
Kd: 700 nM
